The supplement of paper PMC10201428
± gives the standard deviation of the averaged measurements.

What was measured:
[1] = system: VchCAST RNA-guided transposition machinery (E. coli BL21(DE3) host, lacZ target); test: relative integration efficiency (T-RL orientation) vs wild-type transposon end (log2 (normalized fold change)); transposon end mutated: left end; higher = more efficient transposition
Procedure, shortened: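 Relative integration efficiency is a fold change of output over input barcode abundance, normalised to reference barcodes and log-transformed. Input plasmids and genomic integration junctions were PCR-amplified and Illumina-sequenced from E. coli BL21(DE3) co-transformed with a T7-driven effector plasmid and pUC57 donor pools of 1549 left-end or 1849 right-end transposon variants. Plating was done with 0.1 mM IPTG at 37°C for 18 h, with two biological output replicates and four reference barcodes.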

[2] = system: VchCAST RNA-guided transposition machinery (E. coli BL21(DE3) host, lacZ target); test: relative integration efficiency (T-LR orientation) vs wild-type transposon end (log2 (normalized fold change)); transposon end mutated: left end; higher = more efficient transposition
Experimental: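 Pooled, barcoded VchCAST (Tn6677) mini-transposon donor libraries; each variable transposon-end sequence sits in a fixed pDonor mini-transposon context (10-bp barcode and cargo not included). Left- or right-end libraries were co-transformed with pEffector (TniQ-Cascade, TnsABC, lacZ crRNA, T7, 0.1 mM IPTG) into E. coli BL21(DE3) and grown 18 h at 37 C. T-LR and T-RL junction amplicons were sequenced; output/input barcode fold change was normalised to the mean of four wild-type barcodes and log2-transformed. Two biological replicates; zero-count/undetected variants carry floor values (-10 / -15), censored here. Barcode uncoupling by PCR recombination adds noise.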

Sequence	relative integration efficiency (log2) [1]	relative integration efficiency (log2) [2]
AATGTTGTTGATGCAACCATAAAGTGATATTTAATAATTATTTATAATCAGCCCAGGCCAACACCCCACCAACGCGCGGTCGCGAGACACCCCACCAACGCCTGGTCGCGGGGGTGTCCGATCTGATTTCAGCAAAACTACTGCAGTAAGAA	-6.41 ± 1.4	-4.09 ± 1.1
AATGTTGTTGATGCAACCATAAAGTGATATTTAATAATTATTTATAATCAGCAACTTAACCACAAAAGTTGGTATATAACTATAGAGACAAAACAACCATAAGTTGATATTTTTGTGAATCGAGTATTTCAGCAAAACTACTGCAGTAAGAA	-2.65 ± 1.1	-1.8 ± 1.5
AATGTTGTTGATGCAACCATAAAGTGATATTTAATAATGCGGGCGCCGACTACCAGGCCAACACCCCACCAACGCGCGGTCGCGAGACACCCCACCAACGCCTGGTCGCGGGGGTGTCCGATCTGATTTCAGCAAAACTACTGCAGTAAGAA	-7.04 ± 1.2	-5.9 ± 3.3
AATGTTGTTGATGCAACCATAAAGTGATATTTAATAATTATTTATAATCAGCAACTTAACCACAAAATGTGAATCGAGTATTTCAGCAAAACTACTGCAGTAAGAATCAACCATATATTGATATCTCACAAAACAACCATAAGTTGATATTT	-5.36 ± 1.6	-5.03 ± 3.6
AATGTTGTTGATGCAACCATAAAGTGATATTTAATAATTATTTATAATCAGCAACTTAACCACAAAACAACCATATATTGATATCGACACCCCACCAACGCCTGGTCGCGGGGGTGTCCGATCTGATTTCAGCAAAACTACTGCAGTAAGAA	-2.44 ± 0.91	-1.19 ± 2
AATGTTGTTGATGCAACCATAAAATGATAATTAATAATTATTTATAATCAGCAACTTAACCACAAAACAACCATAAAATGATAATTAACAAAATAATTATCATTTTATGGTTGTGTGAATCGAGTATTTCAGCAAAACTACTGCAGTAAGAA	-3.63 ± 0.84	0.0912 ± 1.6
AATGTTGTTGATGCAACCATAAAGTGATATTTAATAATGGAATTGTGAGCGGATAACAATTACAAAACAACCATATATTGATATCTCACAAAACAACCATAAGTTGATATTTTTGTGAATCGAGTATTTCAGCAAAACTACTGCAGTAAGAA	-4.89 ± 0.52	-3.41 ± 0.6
AATGTTGTTGATGTGTTGCAACCATAAAGTGATATTTAATAATTATTTATAATCAGCAACTTAACCACAAAACAACCATATATTGATATCTCACAAAACAACCATAAGTTGATATTTTTGTGAATCGAGTATTTCAGCAAAACTACTGCAGT	-6.86 ± 1.7	< -10
AATGTTGTTGATGCAACCATAAAGTGATATTTAAAGTACAGCGCGACTGAACTCATCATTAAAACGACAACCATATATTGATATCTCACAAAACAACCATAAGTTGATATTTTTGTGAATCGAGTATTTCAGCAAAACTACTGCAGTAAGAA	-2.4 ± 1.2	-0.487 ± 1.5
AATGTTGTTGATGCAACCATAAAGTGATATTTAATAATTATTTATAATCAGCAACTTAACCACAAAACAACCATATATTGATATCTCACCAACCATAAGTTGATATTTTTGTGAATCGAGTATTTCAGCAAAACTACTGCAGTAAGAAAGTT	-3.37 ± 0.94	-2.01 ± 2.7
AATGTTGTTGATGCAACCATATATTGATATCTCATAATTATTTATAATCAGCAACTTAACCACAAAACAACCATATATTGATATCTCACAAAAGTTGGTATTCAACTATAAAATGTGAATCGAGTATTTCAGCAAAACTACTGCAGTAAGAA	-3.5 ± 1.4	-2.34 ± 0.9
AATGTTGTTGATGCAACCATAAAGTGATATTTACGCCGGCGGGCGCCGACTACCAGGCCAACACCCCCAACCATATATTGATATCTCACAAAACAACCATAAGTTGATATTTTTGTGAATCGAGTATTTCAGCAAAACTACTGCAGTAAGAA	-3.42 ± 1.2	-2.85 ± 1.2
AATGTTGTTGATGCAACCATAAAGTGATATTTAATAATTATTTATAATCAGCAACTTAACCACAAAACAACCATATATTGATATCTCACAAAAACCAACGCCCTGTCGCGGGCTGTGAATCGAGTATTTCAGCAAAACTACTGCAGTAAGAA	-2.5 ± 0.88	-1.71 ± 0.47
AATGTTGTTGATGCAACCATAAAGTGATATTTAATAATTATTTATAATCAGCAACTTAACCACAAAACACCCATAAATTGATATTGCACAAAAGTTGGTATTCAACTATAAAATGTGAATCGAGTATTTCAGCAAAACTACTGCAGTAAGAA	-3.12 ± 1	-0.929 ± 1.3
AATGTTGTTGATGCAACCATAAAGTGATATTTAATAATTATTTATAATCAGCAACTTCAACCATATATTGATATCTCACAAAACAACCATAAGTTGATATTTTAACCACAAAATGTGAATCGAGTATTTCAGCAAAACTACTGCAGTAAGAA	-0.834 ± 0.54	-1.03 ± 0.79
AATGTTGTTGAAACAACCATAAAGTGATAACAACGAATCAATTAAAATCATAGGCTTAATCGAAAAACAACCATATCTTGATATCGCATAAAACAACCATAAGTTGATATTTTGGTGAAAAGGATATTCCAACCTTCATAGTTTAGTAAGAA	-0.201 ± 0.34	0.198 ± 0.12
AATGTTGTTGATGCAACCATAAAGTGATATTTAATAATTATTTATCAACCATATATTGATATCTCACAAAACAACCATAAGTTGATATTTTTGTGAATCGAGTATTTCAGCAAAACTACTGCAGTAAGAAAGTTACTTCGTGGTATGGGAGG	-6.15 ± 0.83	-3.55 ± 2.2
AATGTTGTTGATGCACCCATAAATTGATAATTAATAATTATTTATAATCAGCAACTTAACCACAAAACAACCATAAAATGATAATTAACAAAAGTTGGTATTCAACTATAAAATGTGAATCGAGTATTTCAGCAAAACTACTGCAGTAAGAA	-2.86 ± 1.1	-0.947 ± 1.4
AATGTTGTTGATGCAACCATAAAGTGATATTTAAGCTATACTCTAGGTATCTAACTTGTCCCATTGCCAACCATATATTGATATCTCACAAAACAACCATAAGTTGATATTTTTGTGAATCGAGTATTTCAGCAAAACTACTGCAGTAAGAA	-4.82 ± 1.4	-3.91 ± 1.4
AATGTTGTTGATGCAACCATAAAGTGATATTTACAACCATATATTGATATCTCACAACAACCATAAGTTGATATTTTTGTGAATCGAGTATTTCAGCAAAACTACTGCAGTAAGAAAGTTACTTCGTGGTATGGGAGGATCAAGGAGCCAAT	-2.68 ± 0.7	2.75 ± 0.92
AATGTTGTTGATGCAACCATAAAGTGATATTTAATAATTATTTATAACAACCATATATTGATATCTCTCAGCAACTTAACCACAAAAACAAAACAACCATAAGTTGATATTTTTGTGAATCGAGTATTTCAGCAAAACTACTGCAGTAAGAA	-4.46 ± 0.052	-2.66 ± 1.4
AATGTTGTTGATGCAACCATAAAGTGATATTTAATAATTATTCAACCATATATTGATATCTCTATAATCAGCAACTTAACCACAAAAACAAAACAACCATAAGTTGATATTTTTGTGAATCGAGTATTTCAGCAAAACTACTGCAGTAAGAA	-5.19 ± 1.2	-3.42 ± 0.56
AATGTTGTTGATGCACCCATAAATTGATAATTAATAATTATTTATAATCAGCAACTTAACCACAAAACACCCATAAATTGATATTGCACAAAAGTTGGTATTCAACTATAAAATGTGAATCGAGTATTTCAGCAAAACTACTGCAGTAAGAA	-3.68 ± 1.4	-1.72 ± 0.67
AATGTTGTTGATGCAACCATAAAGTGATATTTAATAATTATTTATAATCAGCAACTTAACCACAAAACAACCATATATTGATATCTCACAAACAACCATAAGTTGATATTTTTGTGAATCGAGTATTTCAGCAAAACTACTGCAGTAAGAAA	-1.69 ± 0.68	-0.446 ± 0.92
AATGTTGTTGATGCAACCATAAAGTGATATTTAATAATTATTTATAATCAGCAACTTAACCACAAAACAACCATATATTGATATCTCACAAAACAACCATCCTGGTCGCGGGGGTGTCCGATCTGATTTCAGCAAAACTACTGCAGTAAGAA	-1.99 ± 0.82	-0.61 ± 0.64
AATGTTGTTGATGCAACCATAAAGTGATATTTAATAATTATTTATAATCAGCAACTTACAACCATATATTGATATCTCACCACAAAAACAAAACAACCATAAGTTGATATTTTTGTGAATCGAGTATTTCAGCAAAACTACTGCAGTAAGAA	-0.417 ± 0.35	0.226 ± 1.1
AATGTTGTTGATGCAACCATAAAGTGATATTTAATAATTATTTATAATCAGCAACTTAACCACAAAACAACCATATATTGATATCTCACCCCCACCAACGCCTGGTCGCGGGGGTGTCCGATCTGATTTCAGCAAAACTACTGCAGTAAGAA	-2.66 ± 0.95	-1.5 ± 1.8
AATGTTGTTGATGCAACCATAAAGTGATATTTAACAACCATAAAGTGATATTTAACTTAACCACAAACAACCATATATTGATATCTCACAAAACAACCATAAGTTGATATTTTTGTGAATCGAGTATTTCAGCAAAACTACTGCAGTAAGAA	-2.56 ± 0.5	1.37 ± 1.1
AATGTTGTTGATGCAACCATAAAGTGATATTTAATAATTATTTATAATCAGCAACTTAACCACAAAACAACCATATATTGATATCTCCAACCATAAGTTGATATTTTTGTGAATCGAGTATTTCAGCAAAACTACTGCAGTAAGAAAGTTAC	-3.71 ± 1.5	-1.44 ± 1.2
AATGTTGTTGATGCAACCATAAAGTGATATTTAATACAACCATATATTGATATCTCATTATTTATAATCAGCAACTTAACCACAAAAACAAAACAACCATAAGTTGATATTTTTGTGAATCGAGTATTTCAGCAAAACTACTGCAGTAAGAA	-4.61 ± 1.8	-3.41 ± 3.5
